These results are taken from patent US7981691B2, “Two helix binders” (General Electric Company, priority 2006, dated 2011).

Positions of bridges follow the written chain, without caps; N, C: chain ends. Non-standard residues stand in square brackets, D forms with d. No end group written: not given here. Aib = CC(C)(N)C(=O)O

A short description of series [1]: CD spectroscopy of 2-helix scaffolds (secondary structure, helicity). The class given is physicochemical. The settings on record: Circular Dichroism. As to the method: Secondary structure of different 2-helix scaffold was determined by CD analysis. All CD spectra were obtained on an JASCO J-815 CD spectropolarimeter in the wavelength range of 250-185 nm using 1 nm bandwidth, 0.5 nm resolution, 4 seconds averaging time, 3 scan per sample, 0 second delay, and a path length of 1 mm. Spectra were recorded at 20° C., unless otherwise noted, in a thermostated circular cuvette, with peptide concentrations of 15 μM in 13 mM of K2HPO4 buffer at pH8. Results are reported as mean residue ellipticity (MRW).
In general terms: Circular dichroism is widely used to follow secondary structure.

The target of series [2] is T1, extracellular domain of the Her2/neu antigen (Fc-Her2) (Homo sapiens, UniProt P04626).
T1 construct: The extracellular domain of the Her2/neu antigen was obtained as a conjugate with the Fc region of human IgG; purchased R&D Systems
Description: SPR (BIAcore) binding of two helix peptides to immobilized Fc-Her2. The settings on record: relative binding by SPR. (In general: SPR reads the build-up and loss of mass on a sensor chip optically.)
Description: Binding interactions between the binder and the Her2/neu antigen was measured in vitro using surface plasmon resonance (SPR) detection on a BIAcore™ 3000 instrument (Piscataway, N.J.). The extracellular domain of the Her2/neu antigen was obtained as a conjugate with the Fc region of human IgG (Fc-Her2) from R&D Systems and covalently attached to a CM-5 dextran-functionalized sensor chip (BIAcore™) pre-equilibrated with HBS-EP buffer (0.00M HEPES pH 7.4, 0.15M NaCl, 3 mM EDTA, 0.005% v/v surfactant P20) at 10 μL/min and subsequently activated with 1-ethyl-3-[3-dimethylaminopropyl]carbodiimide hydrochloride (EDC) and N-hydroxysuccinimide (NHS). The Fc-Her2 (5 μg/ml) in 10 mM sodium acetate (pH 5.5) was injected onto the activated sensor chip until the desired immobilization level was achieved (2 min). Residual activated groups on the sensor chip were blocked by injection of ethanolamine (1 M, pH 8.5). Any non-covalently bound conjugate was removed by repeated (n=5) washing with 2.5 M NaCl2, 50 mM NaOH.
A second flow cell on the same sensor chip was treated identically, except with no Fc-Her2 immobilization, to serve as a control surface for refractive index changes and non-specific binding interactions with the sensor chip. Prior to the kinetic study, binding of the target analyte was tested on both surfaces and a surface stability experiment was performed to ensure adequate removal of the bound analyte and regeneration of the sensor chip following treatment with 2.5 M NaCl, 50 mM NaOH. SPR sensorgrams were analyzed using the BiaEval (BIAcore) software.
The binding interactions between the generated peptide and Fc-Her2 conjugate were measured using SPR (BIAcore). To minimize mass transport limitations, a surface density of ˜3000 Rus (Response Units) Fc-Her2 was used, resulting in a maximal binding response ˜100 RU with ˜100 nM of the synthesized peptide. SPR measurements were collected at eight analyte concentrations (0-100 nM peptide) and the resulting sensorgrams were fitted to a 1:1 Langmuir binding model.

As to “VENKCNKEMRNAYWEIALLPNLNNQXKRAXIRSXYDDPC (VENKCNKEMRNAYWEIALLPNLNNQ[Aib]KRA[Aib]IRS[Aib]YDDPC-NH2; disulfide 5-39 (inferred)) [SEQ. ID. NO. 25]”, the “helicity / population of helix conformers (in words)” value (from here on “helicity / population”) in series [1] is given as “helicity increases”. The “binding to target molecule Her2 (in words)” value (“binding” below) in series [2] is “unable to bind target molecule”.

On to “VENKCNKXMRNXYWEXALLPNLNNQQKRAFIRSLYDDPC (VENKCNK[Aib]MRN[Aib]YWE[Aib]ALLPNLNNQQKRAFIRSLYDDPC-NH2; disulfide 5-39 (inferred)) [SEQ. ID. NO. 24]”, for which the “helicity / population” value in series [1] was “helicity increases”. In series [2], the “binding” value is reported as “unable to bind target molecule”.

As for “VENKCNKXMRNXYWEXALLPNLNNQXKRAXIRSXYDDPC (VENKCNK[Aib]MRN[Aib]YWE[Aib]ALLPNLNNQ[Aib]KRA[Aib]IRS[Aib]YDDPC-NH2; disulfide 5-39 (inferred)) [SEQ. ID. NO. 26]”, the “helicity / population” value in series [1] was “helicity increases”. Further, in series [2], the “binding” value is “unable to bind target molecule”.
